Data: patent US20150141617A1, “PRODUCTION AND PURIFICATION OF ACTIVE EUKARYOTIC FORMYLGLYCINEGENERATING ENZYME (FGE) VARIANTS” (Universität Bielefeld, priority 2013, published 2015)

What was measured:
furin = furin (Homo sapiens, UniProt P09958); assay: FGE processing in CHO-FD11 cells co-expressing furin; type: cell-based; set-up: expressed in transfected cells; host or cells: CHO-FD11 / CHO-FD11 Tet-On (furin-deficient CHO) cells, transient co-transfection with FGE
Excerpt: The resulting constructs were verified by full-length sequencing of the coding region to exclude any PCR prone errors. Plasmids for expression of the PCs encoding human furin (Gene ID 5045), human PACE4 (=PCSK6, Gene ID 5046), murine […] (=Pcsk5, Gene ID 18552) and rat PC7 (=Pcsk7, Gene ID 29606) were kindly provided by Abdel-Majid Khatib (18). Note that the PC cDNAs were encoded as pIRES constructs coding also for enhanced green fluorescence protein (EGFP) such that EGFP expression levels serve as a measure of the expression levels of PCs.
3 μg of pSB-FGE-RGS-His6 vector was used for single transfections of HT1080, HeLa, HEK 293, BHK and CHO cells. Conditioned medium was collected after 24 h and centrifuged (500×g, 5 min) Cells were washed once with PBS, treated with trypsin (Lonza) and pelleted by 250×g to remove the medium. Cell pellets were resuspended in PBS (pH 7.4) containing protease inhibitor (PI) cocktail (Sigma) and lysed by sonication 3×10 s on ice. […]
In mammals, the proproteinconvertase family comprises nine enzymes that differ in their substrate specificity and tissue-specific expression and/or subcellular localization (17). […] Indeed, rFurin readily converted almost 90% of endogenous fl-FGE from untransfected HT1080 cells to the truncated form (FIG. 12E). […]

steroid sulfatase (STS) = assay: Steroid sulfatase (STS) activity assay after co-expression with FGE in MSDi Tet-On cells; type: cell-based, human; conditions: vs STS expressed alone; doxycycline induction
Procedure: Activity assays of STS were performed as described earlier (15, 23). For western blot analysis, polyclonal antisera against FGE and steroid sulfatase were used as primary antibodies. Horseradish peroxidase-conjugated goat anti-rabbit antibody was used as secondary antibodies. Signals of steroid sulfatase are given as relative amounts, i.e. related to signal intensities detected in cells expressing steroid sulfatase only. Relative specific sulfatase activities were calculated, i.e. catalytic activity divided by the western blot signal (arbitrary units) and referred to that of cells expressing the sulfatase only (relative specific sulfatase activity=1). Absolute values for this reference are given in the legends.
Using this method the inventors examined whether the RYSR motif is required for the activation of sulfatases. cDNAs encoding steroid sulfatase (STS) alone or co-transfected along with cDNAs encoding RYSR-motif alanine variants of FGE in immortalized MSD Tet-On cells were transfected (FIG. 9C). Upon doxycycline induction, STS was barely active when expressed alone, whereas co-expression with FGE-wt increased the activity of STS approx. 50-fold, as observed previously (12).

Chain of furin (P09958 108-794): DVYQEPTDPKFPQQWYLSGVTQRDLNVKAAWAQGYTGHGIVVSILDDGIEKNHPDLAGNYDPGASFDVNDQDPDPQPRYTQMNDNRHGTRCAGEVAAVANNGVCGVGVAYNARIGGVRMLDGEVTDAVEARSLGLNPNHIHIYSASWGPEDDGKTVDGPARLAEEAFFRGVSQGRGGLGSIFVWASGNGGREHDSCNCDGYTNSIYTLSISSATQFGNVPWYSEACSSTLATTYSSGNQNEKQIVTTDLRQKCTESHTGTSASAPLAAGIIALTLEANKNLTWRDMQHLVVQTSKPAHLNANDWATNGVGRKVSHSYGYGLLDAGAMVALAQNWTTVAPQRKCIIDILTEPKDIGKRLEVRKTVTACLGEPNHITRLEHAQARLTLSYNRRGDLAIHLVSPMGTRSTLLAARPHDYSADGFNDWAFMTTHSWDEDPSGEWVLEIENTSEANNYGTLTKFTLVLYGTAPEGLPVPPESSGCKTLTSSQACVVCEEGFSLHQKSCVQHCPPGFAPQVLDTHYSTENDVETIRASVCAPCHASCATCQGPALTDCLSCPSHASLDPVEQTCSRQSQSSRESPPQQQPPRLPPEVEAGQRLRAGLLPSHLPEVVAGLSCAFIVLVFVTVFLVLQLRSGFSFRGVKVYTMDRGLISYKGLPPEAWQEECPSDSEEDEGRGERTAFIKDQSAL

Δ72-FGE in secretions (furin; coexpression of furin, CHO-FD11 Tet-On): ~100%
B1: FGE: human wild type full length formylglycine generating enzyme with RYSR furin cleavage motif, SEQ ID NO:2 (protein)
chain: ADEFSQEAGTGAGAGSLAGSCGCGTPQRPGAHGSSAAAHRYSREANAPGPVPGERQLAHSKMVPIPAGVFTMGTDDPQIKQDGEAPARRVTIDAFYMDAYEVSNTEFEKFVNSTGYLTEAEKFGDSFVFEGMLSEQVKTNIQQAVAAAPWWLPVKGANWRHPEGPDSTILHRPDHPVLHVSWNDAVAYCTWAGKRLPTEAEWEYSCRGGLHNRLFPWGNKLQPKGQHYANIWQGEFPVTNTGEDGFQGTAPVDAFPPNGYGLYNIVGNAWEWTSDWWTVHHSVEETLNPKGPPSGKDRVKKGGSYMCHRSYCYRYRCAARSQNTPDSSASNLGFRCAADRLPTMDSGRGSHHHHHHH
modifications: cloned matured acitve full length FGE with 6x His tag on C-terminus
form of secreted FGE (furin; furin replenished by exogenous expression): all secreted FGE was in the truncated form
increase of STS activity on co-expression (steroid sulfatase (STS)): approx. 50 fold
